Experimental data as given in patent US9463249B2, “Crystalline insulin-conjugates” (SmartCells, Inc., priority 2009, dated 2016).

Key:
[1] = Glucose-responsive PK under constant i.v. infusion with i.p. glucose injection at 240 min; set-up: species or system Sprague-Dawley rats; settings: rat, in vivo, iv
Procedure: In this example, the i.v. elimination rate experiment described in Example 30 was modified from a single i.v. bolus of 0.4 mg conjugate/kg body weight to a continuous i.v. infusion.
A blood sample was taken at t=0 min, after which the constant i.v. infusion was initiated.
Throughout the experiments, blood glucose was measured using commercially available test strips (Precision Xtra, Abbott Laboratories, Abbott Park, Ill.). Blood from each timepoint was centrifuged at 4 C to collect the serum, and serum insulin or serum conjugate concentrations were subsequently measured with a commercially available ELISA kit (Iso-Insulin ELISA, Mercodia, Uppsala, Sweden).

[2] = rat, in vivo, iv
Procedure: To determine the elimination rate in the presence of elevated glucose levels, one hour before the start of the experiment one rat cannula was connected to a syringe infusion pump containing a sterile 50% w/v glucose solution. The pump infusion rate was adjusted by the experimenter to ensure that the blood glucose levels in the animal remained above 300 mg/dL at all times during the experiment. Blood glucose was measured using commercially available test strips (Precision Xtra, Abbott Laboratories, Abbott Park, Ill.). […]
(§1) Throughout the experiment, blood glucose was measured using commercially available test strips (Precision Xtra, Abbott Laboratories, Abbott Park, Ill.). Blood from each timepoint was centrifuged at 4 C to collect the serum, and serum insulin or serum conjugate concentrations were subsequently measured with a commercially available ELISA kit (Iso-Insulin ELISA, Mercodia, Uppsala, Sweden). […]
as §1

lectins = assay: Relative lectin binding affinities of saccharide ligands (FIG. 1); settings: four sugars shown in FIG. 1

Molecule: RHI: recombinant human insulin (MW=5808 Da, Sigma Aldrich), unconjugated control
- hypoglycemia prior to glucose injection [1]: causes significant hypoglycemia prior to glucose injection
- effect of sugars on elimination rate, in words [2]: not affected in the presence of sugars

Molecule: NCCO[C@H]1O[C@H](CO[C@H]2O[C@H](CO)[C@@H](O)[C@H](O)[C@@H]2O)[C@@H](O)[C@H](O[C@H]2O[C@H](CO)[C@@H](O)[C@H](O)[C@@H]2O)[C@@H]1O [AETM, Man (α-1,3)-Man(α-1.6)-α-1-aminoethylmannopyranoside]
- lectin binding affinity relative to the other sugars (lectins): highest affinity of the four sugars shown
